Assay [1] addresses T1, IRISIN protein (human recombinant IRISIN) (human, UniProt Q8NAU1 1-191).
T1 chain: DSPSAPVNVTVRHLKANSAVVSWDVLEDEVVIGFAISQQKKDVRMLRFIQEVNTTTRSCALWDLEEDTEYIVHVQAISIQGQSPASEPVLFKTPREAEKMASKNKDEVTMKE
Nature of the assay: BLI.

Assay [2] deals with T1, IRISIN protein (human recombinant …). The assay is described as follows: BLI.

B1: TRPC3 protein (provided by Chen Lei Laboratory, Peking University) (natural protein)
chain: MEGSPSLRRMTVMREKGRRQAVRGPAFMFNDRGTSLTAEEERFLDAAEYGNIPVVRKMLEESKTLNVNCVDYMGQNALQLAVGNEHLEVTELLLKKENLARIGDALLLAISKGYVRIVEAILNHPGFAASKRLTLSPCEQELQDDDFYAYDEDGTRFSPDITPIILAAHCQKYEVVHMLLMKGARIERPHDYFCKCGDCMEKQRHDSFSHSRSRINAYKGLASPAYLSLSSEDPVLTALELSNELAKLANIEKEFKNDYRKLSMQCKDFVVGVLDLCRDSEEVEAILNGDLESAEPLEVHRHKASLSRVKLAIKYEVKKFVAHPNCQQQLLTIWYENLSGLREQTIAIKCLVVLVVALGLPFLAIGYWIAPCSRLGKILRSPFMKFVAHAASFIIFLGLLVFNASDRFEGITTLPNITVTDYPKQIFRVKTTQFTWTEMLIMVWVLGMMWSECKELWLEGPREYILQLWNVLDFGMLSIFIAAFTARFLAFLQATKAQQYVDSYVQESDLSEVTLPPEIQYFTYARDKWLPSDPQIISEGLYAIAVVLSFSRIAYILPANESFGPLQISLGRTVKDIFKFMVLFIMVFFAFMIGMFILYSYYLGAKVNAAFTTVEESFKTLFWSIFGLSEVTSVVLKYDHKFIENIGYVLYGIYNVTMVVVLLNMLIAMINSSYQEIEDDSDVEWKFARSKLWLSYFDDGKTLPPPFSLVPSPKSFVYFIMRIVNFPKCRRRRLQKDIEMGMGNSKSRLNLFTQSNSRVFESHSFNSILNQPTRYQQIMKRLIKRYVLKAQVDKENDEVNEGELKEIKQDISSLRYELLEDKSQATEELAILIHKLSEKLNPSMLRCE
With B1, in assay [1], the off-rate constant (koff) stood at 0.00384 s⁻¹. The Kd in assay [2] worked out at 32.2 nM.
